Measured values reported in PMC8847575, “HSL1 and BAM1/2 impact epidermal cell development by sensing distinct signaling peptides” (Nature Communications, 2022).
Where “and” joins values, the source holds several entries; their conditions need not be identical. Equal values may be shown once. Read-outs that look alike come from different tables or passages of the source. Square brackets hold non-standard residues; d marks the D form. Ends that are not written are not given here. Peptide text beside a SMILES is read from it. Hyp = O=C(O)[C@@H]1C[C@@H](O)CN1

Columns and labels:
BAM1 LRR ectodomain = biological target: T1, BAM1 LRR ectodomain (Arabidopsis thaliana, UniProt O49545); assay: ITC, peptide titrated into BAM1 ectodomain; assay type: binding; conditions: ITC, 25 °C, mean ± SD of at least two independent experiments; for Kd (dissociation constant), peptide vs BAM1: peptide into BAM1 ectodomain (cell), 20 mM sodium citrate pH 5.0, 150 mM NaCl, N fitted to 1, n.d = no binding detected; for ΔH, peptide vs BAM1: peptide into BAM1 ectodomain, pH 5.0
T1 construct: BAM1 (residues 20–637, AT5G65700); azurocidin or Drosophila BIP signal peptide (secretion signal) (N); made in house; host or cells: Trichoplusia ni Tnao38 insect cells (baculovirus)
T1 sequence (O49545 20-637): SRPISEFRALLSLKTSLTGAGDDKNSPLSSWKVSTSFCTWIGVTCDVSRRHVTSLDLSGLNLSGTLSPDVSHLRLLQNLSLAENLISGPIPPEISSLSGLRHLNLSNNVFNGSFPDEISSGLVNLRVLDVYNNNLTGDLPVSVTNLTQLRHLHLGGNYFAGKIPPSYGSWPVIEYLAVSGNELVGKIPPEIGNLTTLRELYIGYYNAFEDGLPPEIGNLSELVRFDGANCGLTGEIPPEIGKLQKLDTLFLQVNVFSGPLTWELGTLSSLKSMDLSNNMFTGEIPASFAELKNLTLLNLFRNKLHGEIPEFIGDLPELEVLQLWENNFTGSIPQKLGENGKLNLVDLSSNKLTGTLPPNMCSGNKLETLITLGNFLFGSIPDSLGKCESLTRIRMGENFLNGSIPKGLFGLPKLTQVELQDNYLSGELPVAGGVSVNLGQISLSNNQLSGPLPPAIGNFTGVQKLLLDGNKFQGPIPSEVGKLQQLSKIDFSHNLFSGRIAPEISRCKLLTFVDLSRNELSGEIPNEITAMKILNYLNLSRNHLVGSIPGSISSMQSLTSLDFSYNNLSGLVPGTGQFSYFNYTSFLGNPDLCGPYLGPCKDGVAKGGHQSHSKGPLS
From the text: All genes used for protein expression in Trichoplusia ni Tnao38 cells[46] were codon optimized and cloned into a modified pFastBac vector (Geneva Biotech) providing an azurocidin[47] or Drosophila BIP signal peptide, a TEV (tobacco etch virus protease) cleavage site and a Strep-9xHis tandem affinity tag at their carboxy terminus. The genes used are coding for the Arabidopsis ectodomains of HSL1 (residues 17-618, AT1G28440), HAE (residues 20-620, AT4G28490) SERK1 (residues 24–213, AT1G71830), and BAM1 (residues 20–637, AT5G65700). To perform Grating-coupled interferometry (GCI) experiments, HSL1 was fused to a non-cleavable Avi-tag[49],[50]. Baculovirus generation was carried out in DH10 cells and virus amplification was done in Spodoptera frugiperda Sf9 cells. For protein expression, Trichoplusia ni Tnao38 cells were infected with HAE, HSL1, BAM1 and SERK1 virus with a multiplicity of infection (MOI) of 3. The cells were grown 1 day at 28 °C and two days at 22 °C at 110 rpm. After every expression round, secretion of our proteins was detected using an anti-His-HRP conjugated antibody from Roche (Ref:11965085001) in a 1:2000 dilution. […] Next, affinity tags were removed by incubating the purified proteins with recombinant His-tagged TEV protease, in a 1:50 ratio. The cleaved tag and the protease were separated from the ectodomains by a second Ni^2+ affinity step. Proteins were further purified by size-exclusion chromatography on a Superdex 200 Increase 10/300 GL column (GE Healthcare) equilibrated in 20 mM citric acid pH 5.0, 150 mM NaCl. Peak fractions containing the single proteins or complexes were concentrated using Amicon Ultra concentrators (Millipore, MWCO 10,000 for SERK1 and 30,000 for HAE, HSL1, and BAM1) and used for crystallization or biochemical experiments. Proteins were analyzed for purity and structural integrity by SDS-PAGE.
Experiments were performed at 25 °C using a MicroCal PEAQ-ITC (Malvern Instruments) with a 200 µL standard cell and a 40 μL titration syringe. HSL1, BAM1, and SERK1 proteins were gel-filtrated into the ITC buffer (20 mM sodium citrate pH 5.0, 150 mM NaCl). Molar protein concentrations for HSL1, BAM1, and SERK1 were calculated using their molar extinction coefficient and a molecular weight of 74,896 and 27,551 Da, respectively as previously determined. A typical experiment consisted of injecting 2 μL of a range between 75 and 600 μM solution of ligand into 10 to 30 μM HAE, HSL1, or BAM1 solution in the cell at 150 s intervals and 500 rpm stirring speed. The SERK1 vs HAE/HSL1-peptide experiments were performed by titrating 100 µM SERK1 in the cell, using the same injection pattern. ITC data were corrected for the heat of dilution by subtracting the mixing enthalpies for titrant solution injections into protein-free ITC buffer. Experiments were done in duplicates or triplicates, otherwise specified, and data were analyzed using the MicroCal PEAQ-ITC Analysis Software provided by the manufacturer. […] The N values were fitted to 1 in the analysis.

[1] = biological target: T2, HSL1 (HAESA-LIKE 1) ectodomain (Arabidopsis, UniProt Q9SGP2 17-618); assay: ITC
T2 chain: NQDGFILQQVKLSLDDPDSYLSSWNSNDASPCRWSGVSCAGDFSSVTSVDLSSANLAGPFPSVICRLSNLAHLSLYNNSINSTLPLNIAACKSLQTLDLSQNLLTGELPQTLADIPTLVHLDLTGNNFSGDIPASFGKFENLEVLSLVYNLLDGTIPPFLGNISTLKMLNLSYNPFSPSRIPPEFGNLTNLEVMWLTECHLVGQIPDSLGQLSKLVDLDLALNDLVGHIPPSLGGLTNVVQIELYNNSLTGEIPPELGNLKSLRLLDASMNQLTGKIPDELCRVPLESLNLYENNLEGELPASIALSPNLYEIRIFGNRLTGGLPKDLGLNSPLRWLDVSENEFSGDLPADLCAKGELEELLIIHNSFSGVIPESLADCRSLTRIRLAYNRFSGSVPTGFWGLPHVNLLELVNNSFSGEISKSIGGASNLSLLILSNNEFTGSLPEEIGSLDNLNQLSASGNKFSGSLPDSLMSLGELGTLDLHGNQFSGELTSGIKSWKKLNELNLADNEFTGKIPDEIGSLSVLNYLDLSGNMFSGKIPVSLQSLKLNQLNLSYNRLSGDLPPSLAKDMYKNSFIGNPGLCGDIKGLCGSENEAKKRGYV

[2] = biological target: T3, biotinylated HSL1 ectodomain with Avi-tag (Arabidopsis, UniProt Q9SGP2 17-618, biotin on the Avi-tag (BirA))
T3 chain: T2 chain

[3] = biological target: T3, biotinylated HSL1 ectodomain with …
[4] = biological target: T3, biotinylated HSL1 ectodomain with …; assay: GCI
[5] = biological target: T3, biotinylated HSL1 ectodomain with …; assay: GCI
[6] = biological target: T4, BAM1 (BARELY ANY MERISTEM 1) ectodomain (Arabidopsis, UniProt O49545 20-637); assay: ITC
T4 chain: T1 sequence (O49545 20-637)

CC(C)C[C@H](NC(=O)[C@@H](N)CCCNC(=N)N)C(=O)N[C@H](C(=O)N1CCC[C@H]1C(=O)N[C@@H](CO)C(=O)N[C@@H](C)C(=O)N1C[C@H](O)C[C@H]1C(=O)N[C@@H](CO)C(=O)N[C@@H](CCCCN)C(=O)N[C@@H](CCCNC(=N)N)C(=O)N[C@@H](Cc1c[nH]cn1)C(=O)N[C@@H](CC(N)=O)C(=O)O)C(C)C [IDA^P58RI59LP60V] (H-RLVPSA[Hyp]SKRHN-OH)
Kd (dissociation constant), peptide vs BAM1 (BAM1 LRR ectodomain): restore binding to BAM1

CC[C@H](C)[C@H](NC(=O)[C@@H]1CCCN1)C(=O)N1CCC[C@H]1C(=O)N1CCC[C@H]1C(=O)N[C@@H](CO)C(=O)NCC(=O)N1C[C@H](O)C[C@H]1C(=O)N[C@@H](CC(N)=O)C(=O)N1CCC[C@H]1C(=O)N[C@@H](CC(C)C)C(=O)N[C@@H](Cc1c[nH]cn1)C(=O)N[C@@H](CC(N)=O)C(=O)O [CLE9^R109PL110IV111P] (H-PIPPSG[Hyp]NPLHN-OH)
Kd (dissociation constant), peptide vs BAM1 (BAM1 LRR ectodomain): non-detectable binding

CC(C)C[C@H](NC(=O)[C@@H]1CCCN1C(=O)[C@H](CC(N)=O)NC(=O)[C@@H]1C[C@@H](O)CN1C(=O)CNC(=O)[C@H](CO)NC(=O)[C@@H]1CCCN1C(=O)[C@@H]1CCCN1C(=O)[C@H](CC(C)C)NC(=O)[C@@H]1CCCN1)C(=O)N[C@@H](Cc1c[nH]cn1)C(=O)N[C@@H](CC(N)=O)C(=O)O [CLE9^R109PV111P] (H-PLPPSG[Hyp]NPLHN-OH)
ΔH, peptide vs BAM1 (BAM1 LRR ectodomain): -3.7 ± 0.4 kcal/mol

CC(C)C[C@H](NC(=O)[C@@H]1CCCN1C(=O)[C@H](CC(N)=O)NC(=O)[C@@H]1C[C@@H](O)CN1C(=O)CNC(=O)[C@H](CO)NC(=O)[C@@H]1CCCN1C(=O)[C@@H]1CCCN1C(=O)[C@H](CC(C)C)NC(=O)[C@@H](N)CCCNC(=N)N)C(=O)N[C@@H](Cc1c[nH]cn1)C(=O)N[C@@H](CC(N)=O)C(=O)O [CLE9^V111P] (H-RLPPSG[Hyp]NPLHN-OH)
ΔH, peptide vs BAM1 (BAM1 LRR ectodomain): -19 ± 8.3 kcal/mol

CC[C@H](C)[C@H](NC(=O)[C@@H]1CCCN1)C(=O)N[C@H](C(=O)N1CCC[C@H]1C(=O)N[C@@H](CO)C(=O)NCC(=O)N1C[C@H](O)C[C@H]1C(=O)N[C@@H](CC(N)=O)C(=O)N1CCC[C@H]1C(=O)N[C@@H](CC(C)C)C(=O)N[C@@H](Cc1c[nH]cn1)C(=O)N[C@@H](CC(N)=O)C(=O)O)C(C)C [CLE9^R109PL110I] (H-PIVPSG[Hyp]NPLHN-OH)
ΔH, peptide vs BAM1 (BAM1 LRR ectodomain): -27 ± 11 kcal/mol

CC(C)C[C@H](NC(=O)[C@@H]1CCCN1)C(=O)N[C@H](C(=O)N1CCC[C@H]1C(=O)N[C@@H](CO)C(=O)NCC(=O)N1C[C@H](O)C[C@H]1C(=O)N[C@@H](CC(N)=O)C(=O)N1CCC[C@H]1C(=O)N[C@@H](CC(C)C)C(=O)N[C@@H](Cc1c[nH]cn1)C(=O)N[C@@H](CC(N)=O)C(=O)O)C(C)C [CLE9^R109P] (H-PLVPSG[Hyp]NPLHN-OH)
ΔH, peptide vs BAM1 (BAM1 LRR ectodomain): -26 ± 8 kcal/mol

B1: IDA (INFLORESCENCE DEFICIENT IN ABSCISSION) mature peptide (peptide)
chain: YVPIPPSAPSKRHN
modifications: also: hydroxyproline at Pro64 (precursor numbering), position in chain not settled
Kd [1]: 400 nM | koff [2]: 0.15 s⁻¹ and 0.12 s⁻¹ | Kd [3]: 655 nM and 422 nM | Kd [4]: 580 nM | koff [5]: 0.127 s⁻¹

PLVPSGPNPLHN [CLE9 variant with the first residue substituted by the corresponding one of IDA]
Kd [6]: 91 nM

B2: IDL1 (IDA-LIKE 1) mature peptide (peptide)
chain: YVLVPPSGPSMRHN
modifications: not fully specified; also: conserved central hydroxyproline, position not given here
Kd [1]: 590 nM

PVPASAPSRKHN [IDL4 (IDA-LIKE 4) mature peptide]
Kd [1]: 2020 nM | koff [2]: 0.52 s⁻¹ and 0.75 s⁻¹ | Kd [3]: 2700 nM and 1000 nM | Kd [4]: 1850 nM | koff [5]: 0.65 s⁻¹

RLVPSAPSKRHN [IDA^P58RI59LP60V peptide]
Kd [6]: 980 nM

PLPPSGPNPLHN (also: Hyp112 and Hyp115 presumed as in wild-type) [CLE9^R109PV111P]
Kd [6]: 2240 nM

B3: IDL3 (IDA-LIKE 3) mature peptide (peptide)
chain: PVPTSGPSRKHN
modifications: not fully specified; also: conserved central hydroxyproline, position not given here
Kd [1]: 690 nM | koff [2]: 0.59 s⁻¹ and 0.49 s⁻¹ | Kd [3]: 608 nM and 1000 nM | Kd [4]: 800 nM | koff [5]: 0.55 s⁻¹

YVPVPASGPSRKHN (also: conserved central hydroxyproline, position not given here) [IDL2 (IDA-LIKE 2) mature peptide]
Kd [1]: 121 nM
